The assay addresses HLA-B*07 (Homo sapiens, UniProt P01889). Nature of the assay: MHC binding assay (UV-ligand exchange, ELISA of stabilized MHC complexes). The conditions noted are these: peptide exchange yield on HLA-B*07, UV-ligand exchange. The source says:
Candidate peptides for T cell based therapies according to the present invention were further tested for their MHC binding capacity (affinity). The individual peptide-MHC complexes were produced by UV-ligand exchange, where a UV-sensitive peptide is cleaved upon UV-irradiation and exchanged with the peptide of interest as analyzed. Only peptide candidates that can effectively bind and stabilize the peptide-receptive MHC molecules prevent dissociation of the MHC complexes. To determine the yield of the exchange reaction, an ELISA was performed based on the detection of the light chain (β2m) of stabilized MHC complexes. The assay was performed as generally described in Rodenko et al. (Rodenko et al., 2006)
96 well MAXISorp plates (NUNC) were coated over night with 2 ug/ml streptavidin in PBS at room temperature, washed 4× and blocked for 1 h at 37° C. in 2% BSA containing blocking buffer. […] Peptide-MHC monomers of the UV-exchange reaction were diluted 100-fold in blocking buffer. Samples were incubated for 1 h at 37° C., washed four times, incubated with 2 ug/ml HRP conjugated anti-[…] for 1 h at 37° C., washed again and detected with TMB solution that is stopped with […]. Absorption was measured at 450 nm. Candidate peptides that show a high exchange yield (preferably higher than 50%, most preferred higher than 75%) are generally preferred for a generation and production of antibodies or fragments thereof, and/or T cell receptors or fragments thereof, as they show sufficient avidity to the MHC molecules and prevent dissociation of the MHC complexes.
For orientation: An ELISA detects its analyte on a solid surface through an enzyme-linked reagent.
As to “190 (RLAHVRARL; listed as Homo sapiens) [compound 190]”, the Peptide exchange result was “+++ (>50 = +++)”.

Take “85 (MPMQDIKMILKM; listed as Homo sapiens) [compound 85]”: the Peptide exchange entry was “+++ (>50 = +++)”.

For “135 (MPRLLRLSL; listed as Homo sapiens) [compound 135]”, the Peptide exchange entry is reported as “+++ (>50 = +++)”.

For “330 (RPFSAIAEL; listed as Homo sapiens) [compound 330]”, the Peptide exchange entry is reported as “++++ (>75% = ++++)”.

For “123 (RPRLRDLPAL; listed as Homo sapiens) [compound 123]”, the Peptide exchange entry is listed as “+++ (>50 = +++)”.

As to “246 (RPILKEQSSSSF; listed as Homo sapiens) [compound 246]”, the Peptide exchange result was “++++ (>75% = ++++)”.

With “222 (MLKTTLTAF; listed as Homo sapiens) [compound 222]”, the Peptide exchange result was “+ (>10% = +)”.

Take “260 (LVQSSRSEV; listed as Homo sapiens) [compound 260]”: the Peptide exchange result was “++++ (>75% = ++++)”.

In the case of “345 (SAAPPGASL; listed as Homo sapiens) [compound 345]”, the Peptide exchange result was “+++ (>50 = +++)”.

“60 (RPYSIYPHGVTF; listed as Homo sapiens) [compound 60]”: the Peptide exchange entry was “++++ (>75% = ++++)”.

Regarding “317 (MPYNSAHHCVV; listed as Homo sapiens) [compound 317]”, the Peptide exchange entry is “++++ (>75% = ++++)”.

Take “228 (RPTAASQSRAL; listed as Homo sapiens) [compound 228]”: the Peptide exchange result is reported as “+++ (>50 = +++)”.

In the case of “249 (SPRSGVLL; listed as Homo sapiens) [compound 249]”, the Peptide exchange result is reported as “+++ (>50 = +++)”.

As to “117 (IPHQRSSL; listed as Homo sapiens) [compound 117]”, the Peptide exchange result is “++++ (>75% = ++++)”.

Consider “346 (IPMPRITWL; listed as Homo sapiens) [compound 346]”, for which the Peptide exchange entry is “++++ (>75% = ++++)”.

For the substance “495 (SPSYTQASL; listed as Homo sapiens) [compound 495]”, the Peptide exchange result is recorded as “++++ (>75% = ++++)”.

Take “216 (LPWEQNEQV; listed as Homo sapiens) [compound 216]”: the Peptide exchange result is on record as “+++ (>50 = +++)”.

Consider “203 (KPRGPIDI; listed as Homo sapiens) [compound 203]”, for which the Peptide exchange result is “++ (>20% = ++)”.

For “320 (APMHIDRNIL; listed as Homo sapiens) [compound 320]”, the Peptide exchange result is listed as “++++ (>75% = ++++)”.

Regarding “52 (KEDNPSGHTYTL; listed as Homo sapiens) [compound 52]”, the Peptide exchange result is “+++ (>50 = +++)”.

As to “225 (SPIIHSIL; listed as Homo sapiens) [compound 225]”, the Peptide exchange entry was “+++ (>50 = +++)”.

As to “324 (LPAPLRISL; listed as Homo sapiens) [compound 324]”, the Peptide exchange result is on record as “++++ (>75% = ++++)”.

For the substance “267 (MPVPGILL; listed as Homo sapiens) [compound 267]”, the Peptide exchange entry is given as “+++ (>50 = +++)”.

Regarding “233 (MAYDRFIAI; listed as Homo sapiens) [compound 233]”, the Peptide exchange entry is “+++ (>50 = +++)”.

Regarding “460 (APLMPLGKTL; listed as Homo sapiens) [compound 460]”, the Peptide exchange result is recorded as “++++ (>75% = ++++)”.

In the case of “263 (SQRPPATSQA; listed as Homo sapiens) [compound 263]”, the Peptide exchange entry was “++ (>20% = ++)”.

Consider “349 (QPRDGWPMML; listed as Homo sapiens) [compound 349]”, for which the Peptide exchange entry is “++++ (>75% = ++++)”.

For “315 (APVVFPAL; listed as Homo sapiens) [compound 315]”, the Peptide exchange entry is recorded as “++++ (>75% = ++++)”.

For “136 (QPDHAGIFRVF; listed as Homo sapiens) [compound 136]”, the Peptide exchange entry was “++++ (>75% = ++++)”.

With “96 (QPSLVQAIF; listed as Homo sapiens) [compound 96]”, the Peptide exchange result was “++++ (>75% = ++++)”.

In the case of “13 (LPNTGRIGQL; listed as Homo sapiens) [compound 13]”, the Peptide exchange entry is “+++ (>50 = +++)”.

As for “480 (VPAAPTKAL; listed as Homo sapiens) [compound 480]”, the Peptide exchange result is given as “+++ (>50 = +++)”.

In the case of “467 (VPRNQDWLGVSRQL; listed as Homo sapiens) [compound 467]”, the Peptide exchange entry was “++++ (>75% = ++++)”.

As to “322 (RAVPVGSGL; listed as Homo sapiens) [compound 322]”, the Peptide exchange entry was “+++ (>50 = +++)”.

For “357 (LPPHIFAI; listed as Homo sapiens) [compound 357]”, the Peptide exchange result is “++ (>20% = ++)”.

For the substance “475 (IPLEIQKL; listed as Homo sapiens) [compound 475]”, the Peptide exchange result is “+ (>10% = +)”.

Turning to “362 (KPMLPPAAF; listed as Homo sapiens) [compound 362]”, the Peptide exchange entry is “+++ (>50 = +++)”.

In the case of “304 (SPLIGDFPAF; listed as Homo sapiens) [compound 304]”, the Peptide exchange entry was “++ (>20% = ++)”.

For “111 (YPLQQTNVY; listed as Homo sapiens) [compound 111]”, the Peptide exchange result is given as “+ (>10% = +)”.

As for “20 (MVLGIGPVL; listed as Homo sapiens) [compound 20]”, the Peptide exchange result is “++++ (>75% = ++++)”.

Regarding “195 (NPIFGRKEL; listed as Homo sapiens) [compound 195]”, the Peptide exchange entry is given as “+++ (>50 = +++)”.

Regarding “129 (MTLPATTLTL; listed as Homo sapiens) [compound 129]”, the Peptide exchange result is on record as “++ (>20% = ++)”.

For the substance “248 (KPYDGIPAS; listed as Homo sapiens) [compound 248]”, the Peptide exchange result was “+++ (>50 = +++)”.

Take “210 (IPENRVVSY; listed as Homo sapiens) [compound 210]”: the Peptide exchange entry was “++ (>20% = ++)”.

Take “341 (LPRSPPLKVL; listed as Homo sapiens) [compound 341]”: the Peptide exchange result was “++++ (>75% = ++++)”.

For the substance “270 (SPRGTTSTL; listed as Homo sapiens) [compound 270]”, the Peptide exchange entry is “+++ (>50 = +++)”.

As to “494 (LPLRAVNLNL; listed as Homo sapiens) [compound 494]”, the Peptide exchange entry is recorded as “+++ (>50 = +++)”.

Take “293 (FPYDKPLIM; listed as Homo sapiens) [compound 293]”: the Peptide exchange result is given as “++++ (>75% = ++++)”.

For the substance “372 (SPSSASLTL; listed as Homo sapiens) [compound 372]”, the Peptide exchange result was “++++ (>75% = ++++)”.

Consider “141 (YGPYGSGSGW; listed as Homo sapiens) [compound 141]”, for which the Peptide exchange entry is reported as “++ (>20% = ++)”.

For “140 (TPFPDIHWF; listed as Homo sapiens) [compound 140]”, the Peptide exchange result is “++++ (>75% = ++++)”.

For the substance “196 (RPSGTAGAAL; listed as Homo sapiens) [compound 196]”, the Peptide exchange entry is reported as “+++ (>50 = +++)”.

As for “132 (LPRLPVGSLV; listed as Homo sapiens) [compound 132]”, the Peptide exchange entry is on record as “++++ (>75% = ++++)”.

As to “332 (SPYAGSTAF; listed as Homo sapiens) [compound 332]”, the Peptide exchange entry is listed as “++++ (>75% = ++++)”.

Consider “67 (VPVSRPVL; listed as Homo sapiens) [compound 67]”, for which the Peptide exchange result was “++++ (>75% = ++++)”.

In the case of “54 (VPSCGRSVEGL; listed as Homo sapiens) [compound 54]”, the Peptide exchange entry is “+++ (>50 = +++)”.

As to “156 (GSRPVTGSV; listed as Homo sapiens) [compound 156]”, the Peptide exchange result is “+++ (>50 = +++)”.

Regarding “144 (RPVQGIPTY; listed as Homo sapiens) [compound 144]”, the Peptide exchange result was “+++ (>50 = +++)”.

On to “367 (APQVHIFSL; listed as Homo sapiens) [compound 367]”, for which the Peptide exchange result is reported as “++++ (>75% = ++++)”.

With “191 (KPKAVKPKAA; listed as Homo sapiens) [compound 191]”, the Peptide exchange result was “++++ (>75% = ++++)”.

Take “2 (VPGSDPARYEFL; listed as Homo sapiens) [compound 2]”: the Peptide exchange result is given as “+++ (>50 = +++)”.

Turning to “268 (EPLSVTASY; listed as Homo sapiens) [compound 268]”, the Peptide exchange entry was “++ (>20% = ++)”.

Turning to “47 (RPRQTGALM; listed as Homo sapiens) [compound 47]”, the Peptide exchange entry is “++++ (>75% = ++++)”.

Regarding “271 (SPTPVFTTL; listed as Homo sapiens) [compound 271]”, the Peptide exchange entry is recorded as “+++ (>50 = +++)”.

Turning to “343 (RPRPPKVLGL; listed as Homo sapiens) [compound 343]”, the Peptide exchange entry was “+++ (>50 = +++)”.

Take “194 (HPNKIKASL; listed as Homo sapiens) [compound 194]”: the Peptide exchange entry is recorded as “+++ (>50 = +++)”.

Consider “476 (EPNPVEEIF; listed as Homo sapiens) [compound 476]”, for which the Peptide exchange result is “++ (>20% = ++)”.

These data come from patent US20220289816A1, “IMMUNOTHERAPY WITH B*07 RESTRICTED PEPTIDES AND COMBINATION OF PEPTIDES AGAINST CANCERS AND RELATED METHODS” (Immatics Biotechnologies GmbH, priority 2018, published 2022).
